# In US20100167390, “Novel Oligonucleotide and NF-kB Decoy Comprising the Same” (published 2010):
# T1: NF-kB p52 (NFKB2) (UniProt Q00653 Q00653:1-454)
# T1 sequence: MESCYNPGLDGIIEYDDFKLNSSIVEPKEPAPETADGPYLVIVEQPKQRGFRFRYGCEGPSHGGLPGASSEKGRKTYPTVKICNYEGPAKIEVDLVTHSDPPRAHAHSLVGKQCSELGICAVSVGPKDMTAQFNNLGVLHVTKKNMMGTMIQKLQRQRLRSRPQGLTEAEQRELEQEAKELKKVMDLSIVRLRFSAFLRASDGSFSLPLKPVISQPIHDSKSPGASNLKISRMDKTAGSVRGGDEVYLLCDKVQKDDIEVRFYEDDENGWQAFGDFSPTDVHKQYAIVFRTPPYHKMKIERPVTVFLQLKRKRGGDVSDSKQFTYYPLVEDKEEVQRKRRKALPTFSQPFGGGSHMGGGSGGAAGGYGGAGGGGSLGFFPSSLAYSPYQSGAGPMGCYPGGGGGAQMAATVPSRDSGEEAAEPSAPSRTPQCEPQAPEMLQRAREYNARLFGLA
# What was measured:
# NF-kB p65 (RelA) [1] = biological target: T2, NF-kB p65 (RelA) (UniProt Q04206 Q04206:1-551); experiment: competition; primary screen >5; details: protein: extract; tags: TPA and CI-stimulated Jurkat nuclear extract, Active Motif TransAM kit
# Experimental: (§1) The measurement was performed in accordance with the instructions attached to the kit. The kit was made for quantifying the NF-κB bound to the solid phase by ELISA after adding an NF-κB solution to the wells in which the NF-κB (p65 protein) consensus binding sequence was immobilized and after washing the resultant. By this measurement method, the higher the binding capacity of the oligonucleotide to the NF-κB, the smaller amount of the NF-κB quantified by the ELISA.
# (§2) More concretely, the above-described measurement was carried out as follows concretely: Each SODN solution was serially diluted with Complete Binding Buffer contained in the kit to prepare test samples (common ratio: 3-fold, 4 times, n=3). […] After allowing coloration for 10 minutes, the Stop Solution was added to stop the reaction, and the absorbances at 450 nm and 630 nm were measured.
# (§3) The absorbance at 630 nm was subtracted from the absorbance at 450 nm and the mean value of the blanks was further subtracted from the resultant, and the percentage of the mean value of each concentration based on the mean value of the controls was calculated. The concentration at which the calculated value was 50% (i.e., at which the binding was inhibited by 50%) was calculated from the regression lines between two points interposing 50% (an analysis software Graph Pad PRISM 4, GraphPad SOFTWARE was used). […]
# NF-kB p65 (RelA) [2] = biological target: T2, NF-kB p65 (RelA); experiment: competition; details: protein: extract; tags: TPA and CI-stimulated Jurkat nuclear extract, Active Motif TransAM kit
# Experimental: The binding capacity of each SODN to NF-κB was evaluated by measuring the remaining free NF-κB after reacting each SODN with NF-κB (p65), using a commercially available kit (TransAM Kit (NF-κB, p65, ACTIVE MOTIF) for measuring NF-κB, and using NF-κB molecules in the Jurkat, TPA and CI-Stimulated, Nuclear Extract (nuclear extract of Jurkat cells stimulated with a phorbol ester (TPA) and a calcium ionophore (CI)). The measurement was performed in accordance with the instructions attached to the kit. The kit was made for quantifying the NF-κB bound to the solid phase by ELISA after adding an NF-κB solution to the wells in which the NF-κB (p65 protein) consensus binding sequence was immobilized and after washing the resultant. By this measurement method, the higher the binding capacity of the oligonucleotide to the NF-κB, the smaller amount of the NF-κB quantified by the ELISA.
# More concretely, the above-described measurement was carried out as follows concretely: Each SODN solution was serially diluted with Complete Binding Buffer contained in the kit to prepare test samples (common ratio: 3-fold, 4 times, n=3). To each well, 30 μL of the test sample was added. To the wells of the control and blank, Complete Binding Buffer was added. To each well, 20 μL of the Jurkat, TPA and CI-Stimulated, Nuclear Extract contained in the kit, after dilution with Complete Lysis Buffer to a concentration of 125 μg/mL, was added. To the wells of the blank, Complete Lysis Buffer was added. After incubation for 1 hour with shaking, each well was washed with 1× Wash Buffer contained in the kit, and an anti-NF-κB (p65 protein) antibody was added, followed by incubation for 1 hour. Each well was washed with 1× Wash Buffer, and the Developing Solution contained in the kit was added. After allowing coloration for 10 minutes, the Stop Solution was added to stop the reaction, and the absorbances at 450 nm and 630 nm were measured.
# The binding capacities of the partially phosphorothioated oligonucleotides (the bonds between only all of the nucleotides constituting the consensus sequence in both strands are phosphorothioated, hereinafter also referred to as “PSODN”) of SODNs 7, 8, 9, 16, 17 and 30 of the present invention to the NF-κB (p65 protein) were tested in the same manner as described above.
# NF-kB p50 (NFKB1) = NF-kB p50 (NFKB1) (UniProt P19838 P19838:1-433); experiment: competition; details: protein: extract; tags: TPA and CI-stimulated Jurkat nuclear extract, Active Motif
# Experimental: (§4) The study was carried out in basically the same manner as in the above-described primary screening. The activities to inhibit the binding of various NF-κB family proteins to the consensus NF-κB binding site were compared under the conditions of common ratio of 3-fold, 6 times, n=2. As a control for comparison, fully phosphorothioated decoy oligonucleotide […] (SEQ ID NO:103) was used. The binding inhibition tests against various NF-κB family proteins were conducted using NF-κB Family TransAM Kit (ACTIVE MOTIF), and using NF-κB molecules in the Jurkat, TPA and CI-Stimulated, Nuclear Extract (ACTIVE MOTIF) for p50, and using NF-κB molecules in the Raji nuclear extract (ACTIVE MOTIF) for Rel-B and p52. As the primary antibodies, anti-NF-κB p50 antibody, anti-NF-κB p52 antibody and anti-Rel-B antibody were used, respectively, and the secondary antibody was HRP-labeled anti-rabbit IgG antibody in all cases.
# (§5) More concretely, the above-described measurements were carried out as follows: Each oligonucleotide solution was serially diluted with Complete Binding Buffer to prepare test samples. Each of the test samples was added to the wells in an amount of 30 μL per well, and Complete Binding Buffer was added to the wells of the control and blank. Nuclear extract diluted with Complete Lysis Buffer was added to the wells in an amount of 20 μL per well, and Complete Lysis Buffer was added to the wells of blank. After incubation for 1 hour with shaking, each well was washed with 1× Wash Buffer, and the primary antibody was added, followed by incubation for 1 hour. Each well was washed with 1× Wash Buffer, and the secondary antibody was added, followed by incubation for 1 hour. Each well was washed with 1× Wash Buffer, and the Developing Solution was added. After allowing coloration for 10 minutes, the Stop Solution was added to stop the reaction, and the absorbances at 450 nm and 630 nm were measured.
# (§6) The absorbance at 630 nm was subtracted from the absorbance at 450 nm and the mean value of the blanks was further subtracted from the resultant, and the percentage of the mean value of each concentration based on the mean value of the controls was calculated.
# NF-kB p52 (NFKB2) = biological target: T1, NF-kB p52 (NFKB2); experiment: competition; details: protein: extract; tags: Raji nuclear extract, Active Motif
# Experimental: as §4, §5, §6
# NF-kB p65 (RelA) [3] = biological target: T2, NF-kB p65 (RelA); experiment: competition; primary screen 1.31; details: protein: extract; tags: TPA and CI-stimulated Jurkat nuclear extract, Active Motif TransAM kit
# Experimental: as §1, §2, §3
# NF-kB p65 (RelA) [4] = biological target: T2, NF-kB p65 (RelA); experiment: competition; primary screen 2.01; details: protein: extract; tags: TPA and CI-stimulated Jurkat nuclear extract, Active Motif TransAM kit
# Experimental: as §1, §2, §3
# NF-kB p65 (RelA) [5] = biological target: T2, NF-kB p65 (RelA); experiment: competition; ELISA competition with immobilized consensus site; 4.77 in Table 3-2, 4.93 in Table 4; Table 7 lists 4.93, 4.30, 3.24 in PSODN, FSODN, ODN columns; details: protein: extract; tags: TPA and CI-stimulated Jurkat nuclear extract, Active Motif TransAM kit
# NF-kB p65 (RelA) [6] = biological target: T2, NF-kB p65 (RelA); experiment: competition; primary screen 1.37; details: protein: extract; tags: TPA and CI-stimulated Jurkat nuclear extract, Active Motif TransAM kit
# Experimental: as §1, §2, §3
# NF-kB p65 (RelA) [7] = biological target: T2, NF-kB p65 (RelA); experiment: competition; details: protein: extract; tags: TPA and CI-stimulated Jurkat nuclear extract, Active Motif TransAM kit; remark: listed apart in the source
# Experimental: To study the influence by the phosphorothioation site in the oligonucleotide sequence, decoy oligonucleotides (FSODN) in which only the flanking sequences were phosphorothioated and decoy oligonucleotides (ODN) without phosphorothioation having the same sequences, respectively, were synthesized. The binding inhibition activities were compared under the conditions of common ratio of 3-fold, 6 times, n=2. The binding inhibition tests against NF-κB p65 protein was carried out using NF-κB, p65 TransAM Kit (produced by ACTIVE MOTIF), and using NF-κB protein molecules in the Jurkat, TPA and CI-Stimulated, Nuclear
# Extract (produced by ACTIVE MOTIF). The testing method was the same as in the above-described Example 5. The term “only the flanking sequences were phosphorothioated” means that the bonds in the flanking sequences and the bonds between the respective flanking sequences and the core were phosphorothioated. For example, as for Sequence 7, it is CsGsCs[…]sAsGsC. The values for PSODNs are those obtained in the secondary screening (above-described Table 4).
# NF-kB p65 (RelA) [8] = biological target: T2, NF-kB p65 (RelA); experiment: competition; primary screen 1.61; details: protein: extract; tags: TPA and CI-stimulated Jurkat nuclear extract, Active Motif TransAM kit
# Experimental: as §1, §2, §3
# NF-kB p65 (RelA) [9] = biological target: T2, NF-kB p65 (RelA); experiment: competition; primary screen 3.06; details: protein: extract; tags: TPA and CI-stimulated Jurkat nuclear extract, Active Motif TransAM kit
# Experimental: as §1, §2, §3
# NF-kB p65 (RelA) [10] = biological target: T2, NF-kB p65 (RelA); experiment: competition; primary screen 2.23; details: protein: extract; tags: TPA and CI-stimulated Jurkat nuclear extract, Active Motif TransAM kit
# Experimental: as §1, §2, §3
# Chain of NF-kB p50 (NFKB1) (P19838 1-433, one chain of several): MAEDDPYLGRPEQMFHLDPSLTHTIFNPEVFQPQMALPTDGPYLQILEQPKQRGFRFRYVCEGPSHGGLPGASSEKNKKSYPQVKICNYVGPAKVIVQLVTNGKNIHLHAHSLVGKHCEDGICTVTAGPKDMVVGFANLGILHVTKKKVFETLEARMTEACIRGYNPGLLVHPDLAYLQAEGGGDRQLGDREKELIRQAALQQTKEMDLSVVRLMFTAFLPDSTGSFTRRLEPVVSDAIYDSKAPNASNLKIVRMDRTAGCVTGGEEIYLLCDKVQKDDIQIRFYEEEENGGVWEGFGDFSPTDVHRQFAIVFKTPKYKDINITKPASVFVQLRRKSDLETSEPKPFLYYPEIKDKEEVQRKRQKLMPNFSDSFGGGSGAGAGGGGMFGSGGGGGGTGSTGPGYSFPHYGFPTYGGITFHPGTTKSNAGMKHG
# T2 sequence (Q04206 whole entry, one chain of several): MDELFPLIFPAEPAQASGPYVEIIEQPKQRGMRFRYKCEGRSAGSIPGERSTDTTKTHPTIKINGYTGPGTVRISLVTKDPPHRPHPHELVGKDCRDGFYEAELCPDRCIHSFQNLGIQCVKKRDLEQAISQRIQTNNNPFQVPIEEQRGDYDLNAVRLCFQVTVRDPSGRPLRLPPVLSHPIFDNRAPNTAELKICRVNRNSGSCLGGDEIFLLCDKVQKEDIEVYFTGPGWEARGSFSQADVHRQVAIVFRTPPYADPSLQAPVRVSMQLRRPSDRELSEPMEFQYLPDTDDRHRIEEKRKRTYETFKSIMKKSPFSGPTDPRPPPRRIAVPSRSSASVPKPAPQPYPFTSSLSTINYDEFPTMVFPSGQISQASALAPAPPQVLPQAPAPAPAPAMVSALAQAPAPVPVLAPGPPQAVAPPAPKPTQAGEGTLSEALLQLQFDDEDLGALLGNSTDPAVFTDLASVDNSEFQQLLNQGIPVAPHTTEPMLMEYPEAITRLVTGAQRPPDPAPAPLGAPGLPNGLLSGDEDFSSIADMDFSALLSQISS
Binder,IC50 (NF-kB p65 (RelA) [2]) [nM],IC50 (NF-kB p50 (NFKB1)) [nM],IC50 (NF-kB p52 (NFKB2)) [nM],other results
"SODN83 (dsDNA, PS all bonds, both strands) DNA 1: CAAGTAGGGATTTCCCATAC DNA 2: GTATGGGAAATCCCTACTTG",–,–,–,IC50 (NF-kB p65 (RelA) [1]): 7.33 nM
"PSODN7 (dsDNA, PS only within consensus gggatttccc, both strands) DNA 1: CGCGGGATTTCCCAGC DNA 2: GCTGGGAAATCCCGCG",0.54,1.02,3.01,–
"SODN6 (dsDNA, PS all bonds, both strands) DNA 1: CGAGGGATTTCCCGGC DNA 2: GCCGGGAAATCCCTCG",–,–,–,IC50 (NF-kB p65 (RelA) [3]): 2.33 nM
"SODN8 (dsDNA, PS all bonds, both strands) DNA 1: CCCGGGATTTCCCACC DNA 2: GGTGGGAAATCCCGGG",–,–,–,IC50 (NF-kB p65 (RelA) [4]): 2.12 nM
"Control decoy (conventional NF-kB decoy) (dsDNA, PS all bonds, both strands) DNA 1: CCTTGAAGGGATTTCCCTCC DNA 2: GGAGGGAAATCCCTTCAAGG",–,8.45,8.42,IC50 (NF-kB p65 (RelA) [5]): 5.26 nM
"SODN16 (dsDNA, PS all bonds, both strands) DNA 1: CGCAGGGATTTCCCGCG DNA 2: CGCGGGAAATCCCTGCG",–,–,–,IC50 (NF-kB p65 (RelA) [6]): 1.98 nM
"FSODN16 (dsDNA, PS only in flanks and flank-core bonds) DNA 1: CGCAGGGATTTCCCGCG DNA 2: CGCGGGAAATCCCTGCG",–,–,–,IC50 (NF-kB p65 (RelA) [7]): 1.11 nM
"SODN7 (dsDNA, PS all bonds, both strands) DNA 1: CGCGGGATTTCCCAGC DNA 2: GCTGGGAAATCCCGCG",–,–,–,IC50 (NF-kB p65 (RelA) [8]): 1.75 nM
"PSODN9 (dsDNA, PS only within consensus gggatttccc, both strands) DNA 1: GGAGGGATTTCCCGGG DNA 2: CCCGGGAAATCCCTCC",0.54,0.91,1.55,–
"PSODN16 (dsDNA, PS only within consensus gggatttccc, both strands) DNA 1: CGCAGGGATTTCCCGCG DNA 2: CGCGGGAAATCCCTGCG",0.41,0.8,2.37,–
"SODN17 (dsDNA, PS all bonds, both strands) DNA 1: CCCTGGGATTTCCCGCC DNA 2: GGCGGGAAATCCCAGGG",–,–,–,IC50 (NF-kB p65 (RelA) [3]): 1.81 nM
"SODN91 (dsDNA, PS all bonds, both strands) DNA 1: GTAAAATGGGATTTCCCGAG DNA 2: CTCGGGAAATCCCATTTTAC",–,–,–,IC50 (NF-kB p65 (RelA) [9]): 2.58 nM
"PSODN30 (dsDNA, PS only within consensus gggatttccc, both strands) DNA 1: GGCTGGGATTTCCCGCGG DNA 2: CCGCGGGAAATCCCAGCC",0.48,0.69,2.11,–
"PSODN8 (dsDNA, PS only within consensus gggatttccc, both strands) DNA 1: CCCGGGATTTCCCACC DNA 2: GGTGGGAAATCCCGGG",0.63,1.08,3.22,–
"PSODN17 (dsDNA, PS only within consensus gggatttccc, both strands) DNA 1: CCCTGGGATTTCCCGCC DNA 2: GGCGGGAAATCCCAGGG",0.48,0.91,4.29,–
"SODN9 (dsDNA, PS all bonds, both strands) DNA 1: GGAGGGATTTCCCGGG DNA 2: CCCGGGAAATCCCTCC",–,–,–,IC50 (NF-kB p65 (RelA) [4]): 1.88 nM
"SODN27 (dsDNA, PS all bonds, both strands) DNA 1: CGCAGGGATTTCCCGCGC DNA 2: GCGCGGGAAATCCCTGCG",–,–,–,IC50 (NF-kB p65 (RelA) [10]): 2.87 nM
